For four molecules, affinity, time before visualization and Ki results are on record in patent US9075059B2, “Compositions and methods for detecting plectin-1 as a biomarker for cancer” (University of Virginia Patent Foundation, priority 2009, dated 2015).

In assay [1] the target is T1, Plectin-1 (Homo sapiens, UniProt Q15149). Kind of assay: Affinity of tetrameric versus monomeric plectin-1 targeted peptide. It counts as binding. On the set-up: L3.6 cells were plated on a 96 well plate and incubated with 111In-tPTP and increasing log concentrations of tPTP or scrambled tetramer; endogenous in cells; host or cells: L3.6 pancreatic cancer cells.
For assay [2], the system named is tumors from orthotopically implanted L3.6 cells. Kind of assay: SPECT/CT in vivo imaging of orthotopic PDAC. The settings on record: labeled peptide.
Description: Anesthesia (1%-2% isoflurane in oxygen) was delivered throughout the imaging. CT acquisition used 200 evenly spaced projections spanning 200 degrees over approximately 5 minutes. Mice are repositioned axially for pinhole SPECT scanning 60 evenly spaced projection views were obtained over 180 degrees using two gamma cameras simultaneously. The acquisition time was approximately 30 minutes. The two cameras were fitted with 1 mm diameter tungsten pinholes. […] The reconstructed SPECT voxel size was 0.65×0.65×0.65 mm on a 60×60×60 image matrix. All SPECT images were corrected for radioactivity decay but not for gamma ray attenuation.
In assay [3] the target is T1, Plectin-1. Description: In vitro competition assay: 111In-tPTP versus unlabeled tPTP or ncPTP on L3.6 cells. It counts as binding. The arrangement: L3.6 cells were plated on a 96 well plate and incubated with 111In-tPTP and increasing log concentrations of tPTP or scrambled tetramer; endogenous in cells; host or cells: L3.6 pancreatic cancer cells. The note with it: competition with 111In-labeled tPTP, 1 hr room temperature, read-out: Ki (inhibition dissociation constant).

The target in assay [4] is T1, Plectin-1. Kind of assay: competition with 111In-tPTP on L3.6 cells, gamma counting.

Non-standard residues stand in square brackets, D forms with d. No end group written: not given here. *: point of attachment. DOTA = O=C(O)CN1CCN(CC(=O)O)CCN(CC(=O)*)CCN(CC(=O)O)CC1; βAla = NCCC(=O)O

T1 sequence (Q15149 whole entry): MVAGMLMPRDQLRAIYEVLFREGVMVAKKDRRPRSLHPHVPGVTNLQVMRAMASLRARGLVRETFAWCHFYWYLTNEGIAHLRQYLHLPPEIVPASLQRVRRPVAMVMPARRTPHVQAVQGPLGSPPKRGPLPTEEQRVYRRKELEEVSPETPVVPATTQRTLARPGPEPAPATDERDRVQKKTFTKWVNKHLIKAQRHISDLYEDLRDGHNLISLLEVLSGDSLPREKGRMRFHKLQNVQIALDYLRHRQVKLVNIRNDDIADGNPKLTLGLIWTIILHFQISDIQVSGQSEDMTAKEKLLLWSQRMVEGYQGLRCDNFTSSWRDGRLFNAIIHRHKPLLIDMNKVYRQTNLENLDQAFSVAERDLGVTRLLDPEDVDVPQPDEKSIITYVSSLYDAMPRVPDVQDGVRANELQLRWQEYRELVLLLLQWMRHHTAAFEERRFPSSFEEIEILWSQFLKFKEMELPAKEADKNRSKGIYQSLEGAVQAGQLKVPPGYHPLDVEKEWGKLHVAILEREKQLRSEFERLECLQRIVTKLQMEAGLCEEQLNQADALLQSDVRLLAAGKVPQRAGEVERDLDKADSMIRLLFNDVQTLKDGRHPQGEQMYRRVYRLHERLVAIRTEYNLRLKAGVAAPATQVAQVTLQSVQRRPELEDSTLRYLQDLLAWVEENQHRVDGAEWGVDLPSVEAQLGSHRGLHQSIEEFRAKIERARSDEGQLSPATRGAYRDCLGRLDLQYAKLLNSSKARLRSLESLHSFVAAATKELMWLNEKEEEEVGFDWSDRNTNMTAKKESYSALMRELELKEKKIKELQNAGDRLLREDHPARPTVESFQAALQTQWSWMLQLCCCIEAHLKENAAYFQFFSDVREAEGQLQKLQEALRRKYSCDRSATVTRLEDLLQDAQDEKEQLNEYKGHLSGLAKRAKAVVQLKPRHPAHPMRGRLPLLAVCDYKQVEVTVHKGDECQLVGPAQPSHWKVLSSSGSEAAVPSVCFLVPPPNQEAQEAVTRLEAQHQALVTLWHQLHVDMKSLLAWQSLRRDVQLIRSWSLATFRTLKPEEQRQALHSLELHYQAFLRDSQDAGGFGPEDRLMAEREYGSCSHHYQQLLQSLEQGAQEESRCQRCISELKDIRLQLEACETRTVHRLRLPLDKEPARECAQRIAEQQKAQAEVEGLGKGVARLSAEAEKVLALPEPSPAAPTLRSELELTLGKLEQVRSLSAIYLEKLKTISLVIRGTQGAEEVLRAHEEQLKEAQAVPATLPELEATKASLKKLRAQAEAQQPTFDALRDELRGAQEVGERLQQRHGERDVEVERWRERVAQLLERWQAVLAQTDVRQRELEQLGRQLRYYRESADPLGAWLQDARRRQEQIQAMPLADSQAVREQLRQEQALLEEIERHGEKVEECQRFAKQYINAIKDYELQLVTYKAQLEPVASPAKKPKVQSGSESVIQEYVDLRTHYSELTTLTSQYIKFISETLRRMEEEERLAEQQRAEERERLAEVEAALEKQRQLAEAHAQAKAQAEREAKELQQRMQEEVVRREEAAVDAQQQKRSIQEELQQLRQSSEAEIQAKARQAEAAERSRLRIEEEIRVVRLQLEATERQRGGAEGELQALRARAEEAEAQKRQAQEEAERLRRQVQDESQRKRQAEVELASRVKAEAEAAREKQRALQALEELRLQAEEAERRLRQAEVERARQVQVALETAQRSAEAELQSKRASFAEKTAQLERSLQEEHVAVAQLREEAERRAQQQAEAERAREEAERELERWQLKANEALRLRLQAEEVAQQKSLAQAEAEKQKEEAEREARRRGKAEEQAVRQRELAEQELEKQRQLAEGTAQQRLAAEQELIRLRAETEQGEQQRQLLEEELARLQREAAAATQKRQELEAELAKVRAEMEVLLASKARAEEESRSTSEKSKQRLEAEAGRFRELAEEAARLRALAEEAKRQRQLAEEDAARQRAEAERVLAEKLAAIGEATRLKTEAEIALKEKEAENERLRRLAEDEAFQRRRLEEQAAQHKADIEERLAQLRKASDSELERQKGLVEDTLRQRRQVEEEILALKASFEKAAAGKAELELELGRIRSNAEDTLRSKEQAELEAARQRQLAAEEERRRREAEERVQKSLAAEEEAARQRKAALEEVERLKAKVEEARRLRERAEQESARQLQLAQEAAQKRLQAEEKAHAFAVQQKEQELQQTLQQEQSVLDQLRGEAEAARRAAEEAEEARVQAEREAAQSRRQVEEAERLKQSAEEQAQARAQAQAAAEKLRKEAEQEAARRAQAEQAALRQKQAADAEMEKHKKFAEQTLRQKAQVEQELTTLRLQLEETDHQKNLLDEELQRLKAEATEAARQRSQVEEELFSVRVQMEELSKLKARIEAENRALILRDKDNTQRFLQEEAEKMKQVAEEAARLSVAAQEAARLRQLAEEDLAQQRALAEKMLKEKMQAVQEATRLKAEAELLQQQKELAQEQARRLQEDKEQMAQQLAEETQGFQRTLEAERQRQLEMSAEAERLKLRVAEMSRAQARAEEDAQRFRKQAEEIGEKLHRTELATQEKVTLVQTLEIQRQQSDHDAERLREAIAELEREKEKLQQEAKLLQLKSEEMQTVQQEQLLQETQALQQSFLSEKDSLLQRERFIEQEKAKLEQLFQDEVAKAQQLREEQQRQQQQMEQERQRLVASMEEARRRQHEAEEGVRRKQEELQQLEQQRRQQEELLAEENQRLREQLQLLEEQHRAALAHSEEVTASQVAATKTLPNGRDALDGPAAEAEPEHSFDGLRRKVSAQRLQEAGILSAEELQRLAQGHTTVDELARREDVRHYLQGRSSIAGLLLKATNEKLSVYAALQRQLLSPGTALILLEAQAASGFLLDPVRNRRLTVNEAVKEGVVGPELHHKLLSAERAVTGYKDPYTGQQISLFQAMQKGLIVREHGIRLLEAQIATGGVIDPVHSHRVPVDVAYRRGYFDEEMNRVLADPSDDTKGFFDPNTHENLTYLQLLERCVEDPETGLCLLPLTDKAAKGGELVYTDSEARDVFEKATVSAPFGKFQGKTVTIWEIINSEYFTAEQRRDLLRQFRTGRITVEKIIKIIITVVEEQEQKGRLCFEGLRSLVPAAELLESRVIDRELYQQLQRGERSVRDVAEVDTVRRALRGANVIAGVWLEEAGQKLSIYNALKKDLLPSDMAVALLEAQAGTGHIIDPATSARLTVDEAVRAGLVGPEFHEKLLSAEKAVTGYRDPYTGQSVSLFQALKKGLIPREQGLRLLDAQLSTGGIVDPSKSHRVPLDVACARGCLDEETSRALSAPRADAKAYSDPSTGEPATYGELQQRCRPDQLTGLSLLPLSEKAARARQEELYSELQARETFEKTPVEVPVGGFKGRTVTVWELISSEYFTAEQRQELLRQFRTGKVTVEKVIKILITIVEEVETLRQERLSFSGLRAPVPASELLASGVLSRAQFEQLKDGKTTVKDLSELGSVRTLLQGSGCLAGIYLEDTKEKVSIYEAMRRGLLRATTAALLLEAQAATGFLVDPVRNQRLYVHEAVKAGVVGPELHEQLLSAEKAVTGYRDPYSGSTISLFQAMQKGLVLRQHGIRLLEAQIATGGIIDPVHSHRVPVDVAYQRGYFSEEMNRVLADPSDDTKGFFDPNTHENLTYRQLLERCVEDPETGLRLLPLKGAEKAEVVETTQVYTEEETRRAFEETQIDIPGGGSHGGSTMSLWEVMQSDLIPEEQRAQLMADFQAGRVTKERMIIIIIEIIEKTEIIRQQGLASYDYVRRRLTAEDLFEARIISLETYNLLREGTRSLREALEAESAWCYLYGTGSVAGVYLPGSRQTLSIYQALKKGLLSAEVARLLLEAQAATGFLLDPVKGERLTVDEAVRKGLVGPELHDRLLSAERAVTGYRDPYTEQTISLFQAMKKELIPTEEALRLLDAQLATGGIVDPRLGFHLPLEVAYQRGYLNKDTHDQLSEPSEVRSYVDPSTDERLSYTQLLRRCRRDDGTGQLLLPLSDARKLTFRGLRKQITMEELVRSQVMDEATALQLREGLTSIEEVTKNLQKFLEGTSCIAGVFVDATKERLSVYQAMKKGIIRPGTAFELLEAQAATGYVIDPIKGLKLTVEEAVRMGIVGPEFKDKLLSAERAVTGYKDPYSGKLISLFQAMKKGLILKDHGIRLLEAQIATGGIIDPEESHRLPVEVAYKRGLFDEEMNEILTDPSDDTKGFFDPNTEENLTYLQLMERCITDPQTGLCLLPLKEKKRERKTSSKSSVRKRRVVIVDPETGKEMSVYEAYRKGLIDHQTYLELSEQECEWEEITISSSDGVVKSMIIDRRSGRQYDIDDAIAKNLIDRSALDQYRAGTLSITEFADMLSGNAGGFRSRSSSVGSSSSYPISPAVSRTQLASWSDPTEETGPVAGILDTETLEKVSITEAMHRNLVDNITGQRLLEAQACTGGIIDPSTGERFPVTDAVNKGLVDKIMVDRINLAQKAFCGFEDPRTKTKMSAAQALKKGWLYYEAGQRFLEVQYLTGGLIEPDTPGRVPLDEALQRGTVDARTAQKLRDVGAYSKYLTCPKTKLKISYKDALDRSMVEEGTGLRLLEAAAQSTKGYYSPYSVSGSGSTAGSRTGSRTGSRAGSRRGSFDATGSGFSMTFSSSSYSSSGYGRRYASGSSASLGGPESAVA

With KTLLPTP [monomeric peptide], in assay [1], the affinity is 160 nmol. The same molecule came in with a time before visualization in assay [2] of 48 h.
A word on the Ki: it is a dissociation constant, usually derived from enzyme kinetics or from competition with a known ligand. For the molecule “ncPTP-4(βAKHVMSKQGGS (PEG5000))KKKDOTAβA-NH2 (peptide [βAla]KHVMSKQGGS; chain Lys-Lys-Lys(DOTA)-{βAla-NH2}; not fully specified (some residues, C-terminus); also: tetramer: four chain-1 arms on lysine core, each arm's Ser joined via PEG5000 to the lysine core)”, the Ki in assay [3] amounted to 2860 nM.

B1: ncPTP-4(β… (PEG5000))KKKDOTAβA-NH2 (peptide)
peptide: [βAla]KHVMSKQGGS-PEG5000
chain: Lys-Lys-Lys
modifications: not fully specified (some residues, C-terminus); also: tetramer: four arms joined via PEG5000 to lysine core, attachment lysines not given here
In turn, B1 had an inhibition constant Ki in assay [4] of 2860 nM.

B2: tetrameric plectin-1 targeted peptide (tPTP) complex, (β…(PEG5000))4 KKKKDOTAβA-NH2 (peptide)
peptide: [βAla]KTLLPTPGGS-PEG5000
chain: KKKK(DOTA)-{βAla-NH2}
modifications: not fully specified (some residues); also: branched core [(arm)2-Lys]2-Lys-Lys(DOTA): four arms, C-terminal Ser of each joined through PEG5000 to an amino group of the core
In assay [4], B2 showed a Ki of 830 nM.
